Test results: publication PMC3303795, “Incorporation of Noncanonical Amino Acids into Rosetta and Use in Computational Protein-Peptide Interface Design” (PLoS ONE, 2012)
Read-outs that look alike come from different tables or passages of the source. One block for each molecule: values may come before it. Where a SMILES comes first, the peptide text is derived from it. [ ]: non-standard residue; d: D form. The star is where a group is joined. 5FAM = O=C1OC2(c3ccc(O)cc3Oc3cc(O)ccc32)c2ccc(C(=O)*)cc21; hSer = N[C@@H](CCO)C(=O)O; Nva = CCC[C@H](N)C(=O)O; Abu = CC[C@H](N)C(=O)O; βAla = NCCC(=O)O

Columns and labels:
porcine calpain-1 = target: T1, porcine calpain-1 (Sus scrofa, UniProt P04574); assay: Fluorescence polarization binding assay of labelled calpastatin peptides with purified calpain; settings: calpain titrated into 500 nM labelled peptide; 50 mM NaP, 50 mM NaCl, 5 mM BME, 1 mM CaCl2, 1 mM EDTA, pH 8.0; room temperature; 3 polarization readings averaged per concentration; single state binding model; read-out: Experimental KD
T1 construct: GST (N, cleaved yes); made in house; host or cells: E. coli (pET41b vector)
T1 sequence (P04574 94-266 limits assumed): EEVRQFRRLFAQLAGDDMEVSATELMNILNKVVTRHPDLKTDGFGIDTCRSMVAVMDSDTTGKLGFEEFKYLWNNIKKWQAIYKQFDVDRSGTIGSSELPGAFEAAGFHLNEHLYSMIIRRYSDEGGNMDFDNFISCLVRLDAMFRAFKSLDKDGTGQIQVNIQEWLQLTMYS
Method: Calpain was expressed as a GST-fusion protein in E. coli that had been transfected with a pet41b vector that contained the gene encoding porcine calpain-1. The cells were grown in Luria-Bertani broth with 50 ug/ml kanamycin at 37 degrees Celsius to an OD600 of 0.6 at which point 1 mM isopropyl β-D-1-thiogalactopyranoside (IPTG) was added to induce expression. Cells were grown for an additional 4 hours and harvested by centrifugation. Cells were resuspended in a buffer containing 50 mM NaPO4, 150 mM NaCl, 5 mM BME at pH 8.0 and lysed by sonication. Lysate was centrifuged at 12500 g for 30 minutes and the supernatant was run over a GSTrap-FF column that had been equilibrated with the lysis buffer. After loading, the column was washed with 10 column volumes of the lysis buffer before the GST-calpain was eluted with 50 mM Tris and 10 mM reduced glutithione, pH 8.0. The eluent was monitored by absorbance at 280 nm.5 mL fractions were collected. Those fractions which absorbed at 280 nm were pooled. Thrombin was added to separate the calpain from the GST and the cleavage reaction was allowed to cleave overnight at 4 Celsius. To remove the GST the protein was further purified with a Sephacryl S-200 gel filtration column using a buffer containing 50 mM NaPO4, 50 mM NaCl, 5 mM BME, 1 mM CaCl2, 1 mM EDTA at pH 8.0. The protein was concentrated through centrifugation via a spin column with a 15 K molecular weight cutoff and found to be pure and ran true to predicted size on SDS-PAGE gels.
Purified calpain was manually titrated in to a solution containing 500 nM calpastatin with 50 mM NaP, 50 mM NaCl, 5 mM BME, 1 mM CaCl2, 1 mM EDTA at pH 8.0, till the change in fluorescence polarization reached a plateau. Binding assays were performed at room temperature, 3 polarization readings were averaged for each concentration. Disassociation constants were calculated by fitting the data to a single state binding model using Sigma plot software.

[1] = target: T2, calpastatin peptide Asp609 to 1-methyl-histidine (5FAM–βALA–…(1MH)FTS-amide); assay: fluorescence polarisation; purified calpain manually titrated into 500 nM labelled calpastatin peptide; 50 mM NaP, 50 mM NaCl, 5 mM BME, 1 mM CaCl2, 1 mM EDTA, pH 8.0; room temperature; single state binding model
T2 chain: PDDAIDALSDHFTS

[2] = target: T3, calpastatin peptide Asp609 to homoserine (5FAM–βALA–…(HSE)–FTS-amide); assay: as above
T3 chain: PDDAIDALSDXFTS

[3] = target: T4, calpastatin peptide Phe610 to 4-methyl-phenylalanine (FITC–βALA–…(4MF)TS-amide); assay: as above
T4 chain: PDDAIDALSDDFTS

[4] = target: T5, calpastatin peptide Ser607 to amino butyric acid (5FAM–βALA–PDDAIDAL(ABU)DDFTS-amide); assay: as above
T5 chain: PDDAIDALXDDFTS

[5] = target: T6, calpastatin peptide Ser607 to norvaline (5FAM–βALA–PDDAIDAL(NVL)DDFTS-amide); assay: as above
T6 chain: PDDAIDALXDDFTS

[6] = target: T7, wild type calpastatin subdomain C peptide, 5FAM-labelled (5FAM–βALA–…-amide); assay: as above
T7 chain: PDDAIDALSDDFTS

[7] = target: T8, wild type calpastatin subdomain C peptide, FITC-labelled (FITC–βALA–…-amide); assay: as above
T8 chain: PDDAIDALSDDFTS

[8] = target: T8, wild type calpastatin subdomain C …; assay: as above

Molecule: CCC[C@H](NC(=O)[C@H](CC(C)C)NC(=O)[C@H](C)NC(=O)[C@H](CC(=O)O)NC(=O)[C@@H](NC(=O)[C@H](C)NC(=O)[C@H](CC(=O)O)NC(=O)[C@H](CC(=O)O)NC(=O)[C@@H]1CCCN1C(=O)CCNC(=O)c1ccc2c(c1)C(=O)OC21c2ccc(O)cc2Oc2cc(O)ccc21)[C@@H](C)CC)C(=O)N[C@@H](CC(=O)O)C(=O)N[C@@H](CC(=O)O)C(=O)N[C@@H](Cc1ccccc1)C(=O)N[C@H](C(=O)N[C@@H](CO)C(N)=O)[C@@H](C)O [NVL (5FAM)] ({5FAM-βAla}-PDDAIDAL[Nva]DDFTS-NH2)
Kd (porcine calpain-1): 8.56 ± 0.95 µM

Molecule: CC[C@H](C)[C@H](NC(=O)[C@H](C)NC(=O)[C@H](CC(=O)O)NC(=O)[C@H](CC(=O)O)NC(=O)[C@@H]1CCCN1C(=O)CCNC(=O)c1ccc2c(c1)C(=O)OC21c2ccc(O)cc2Oc2cc(O)ccc21)C(=O)N[C@@H](CC(=O)O)C(=O)N[C@@H](C)C(=O)N[C@@H](CC(C)C)C(=O)N[C@@H](CO)C(=O)N[C@@H](CC(=O)O)C(=O)N[C@@H](CCO)C(=O)N[C@@H](Cc1ccccc1)C(=O)N[C@H](C(=O)N[C@@H](CO)C(N)=O)[C@@H](C)O [HSE (5FAM)] ({5FAM-βAla}-PDDAIDALSD[hSer]FTS-NH2)
Kd (porcine calpain-1): 7.48 ± 0.68 µM

B1: porcine calpain-1 (enzyme)
chain: EEVRQFRRLFAQLAGDDMEVSATELMNILNKVVTRHPDLKTDGFGIDTCRSMVAVMDSDTTGKLGFEEFKYLWNNIKKWQAIYKQFDVDRSGTIGSSELPGAFEAAGFHLNEHLYSMIIRRYSDEGGNMDFDNFISCLVRLDAMFRAFKSLDKDGTGQIQVNIQEWLQLTMYS
modifications: not checked
Kd [1]: 5.81 µM | Kd [2]: 7.48 µM | Kd [3]: 2.6 µM | Kd [4]: 5.8 µM | Kd [5]: 8.56 µM | Kd [6]: 6.6 µM | Kd [7]: 5.77 µM | Kd [8]: 5800 µM

Continued by falling Kd (porcine calpain-1), values first:

Kd (porcine calpain-1): 6.6 ± 0.65 µM
Molecule: CC[C@H](C)[C@H](NC(=O)[C@H](C)NC(=O)[C@H](CC(=O)O)NC(=O)[C@H](CC(=O)O)NC(=O)[C@@H]1CCCN1C(=O)CCNC(=O)c1ccc2c(c1)C(=O)OC21c2ccc(O)cc2Oc2cc(O)ccc21)C(=O)N[C@@H](CC(=O)O)C(=O)N[C@@H](C)C(=O)N[C@@H](CC(C)C)C(=O)N[C@@H](CO)C(=O)N[C@@H](CC(=O)O)C(=O)N[C@@H](CC(=O)O)C(=O)N[C@@H](Cc1ccccc1)C(=O)N[C@H](C(=O)N[C@@H](CO)C(N)=O)[C@@H](C)O [WT (5FAM), reference compound] ({5FAM-βAla}-PDDAIDALSDDFTS-NH2)

Kd (porcine calpain-1): 5.8 ± 1.2 µM
Molecule: CC[C@H](NC(=O)[C@H](CC(C)C)NC(=O)[C@H](C)NC(=O)[C@H](CC(=O)O)NC(=O)[C@@H](NC(=O)[C@H](C)NC(=O)[C@H](CC(=O)O)NC(=O)[C@H](CC(=O)O)NC(=O)[C@@H]1CCCN1C(=O)CCNC(=O)c1ccc2c(c1)C(=O)OC21c2ccc(O)cc2Oc2cc(O)ccc21)[C@@H](C)CC)C(=O)N[C@@H](CC(=O)O)C(=O)N[C@@H](CC(=O)O)C(=O)N[C@@H](Cc1ccccc1)C(=O)N[C@H](C(=O)N[C@@H](CO)C(N)=O)[C@@H](C)O [ABU (5FAM)] ({5FAM-βAla}-PDDAIDAL[Abu]DDFTS-NH2)
